Patent publication US20100160556A1, “GLP-1 Fusion Peptides Conjugated to Polymer(s), Their Production and Use” (priority 2007, published 2010)

Tested on: type II diabetic mice (C57BL/Ks-Lepr db/db)
Assay: In vivo bioactivity in type II diabetic mice
Conditions: 5 μg peptide s.c. twice a day, day 2, 4, 7, 10
Method: 11-week-old type II diabetic mice (C57BL/Ks-Lepr^db/db, Harlan) were treated with 5 μg peptide by subcutaneous injection twice a day at 9 a.m. and 5 p.m. (n=5 per group). Blood glucose was measured before (day 0) and after treatment with GLP^CM peptides (Day 2, 4, 7, 10) at 10 a.m. after an overnight fastening period. Data were presented in relation to blood glucose levels measured at day 0.
Best results were obtained with recombinant SEQ ID NO:6 (CM1) and synthetic SEQ ID NO:8 (CM3). In FIG. 9 (y-axis) the relative effect of the treatment is shown. Blood glucose at day ═O was set to 1. Untreated animals undergo continuous increase in blood glucose level over time, whereas animals treated with inventive peptides display grosso modo a continuous decrease of the blood glucose level over time.

B1: GLP-1(7-37)—IP2-RR-GLP2 (peptide)
chain: HAEGTFTSDVSSYLEGQAAKEFIAWLVKGRGRRDFPEEVAIAEELGRRHADGSFSDEMSTILDNLATRDFINWLIQTKITDKK
notes: 83 aa fusion peptide
  anti-hyperglycemia effect (blood glucose relative to day 0): anti-hyperglycemia effect
